In this test the target is Human recombinant SMAC (10339-H08E), Sino Biologicals (human) (UniProt Q9NR28). Put plainly: microscale thermophoresis; fluorescently labelled SMAC (1 µM) with purified PSD (78-625 nM).

pKd: −log10 of the molar value.

Sequence of Human recombinant SMAC (10339-H08E), Sino Biologicals (human) (Q9NR28 56-239 limits assumed, stated change not applied): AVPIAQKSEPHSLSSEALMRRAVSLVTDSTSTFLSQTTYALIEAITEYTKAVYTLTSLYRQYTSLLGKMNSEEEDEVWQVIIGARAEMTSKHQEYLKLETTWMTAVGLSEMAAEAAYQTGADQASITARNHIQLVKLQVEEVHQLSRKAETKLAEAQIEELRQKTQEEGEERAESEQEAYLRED

As to “Purified recombinant protein (full length) of human phosphatidylserine decarboxylase (PSD), with N-terminal His tag, expressed in E. coli (Acris-OriGene) (from UniProt Q58DH2 60-416) (enzyme)”, the negative logarithm of the Kd (pKd) is 6.61.

The record behind these values is patent US20250051409A1, “MODULATORS OF PHOSPHATIDYLSERlNE DECARBOXYLASE AND USE THEREOF” (THE NATIONAL INSTITUTE FOR BIOTECHNOLOGY IN THE NEGEV LTD., priority 2021, published 2025).
